Measured values: PMC8420271 (The EMBO Journal, 2021)

Molecular target: His-tagged SARS-CoV-2 nucleocapsid (SARS-CoV-2, UniProt P0DTC9 1-419)
Test: pull-down

B1: GST-GSDMD mutant lacking amino acids 265-284 (natural protein)
chain: MGSAFERVVRRVVQELDHGGEFIPVTSLQSSTGFQPYCLVVRKPSSSWFWKPRYKCVNLSIKDILEPDAAEPDVQRGRSFHFYDAMDGQIQGSVELAAPGQAKIAGGAAVSDSSSTSMNVYSLSVDPNTWQTLLHERHLRQPEHKVLQQLRSRGDNVYVVTEVLQTQKEVEVTRTHKREGSGRFSLPGATCLQGEGQGHLSQKKTVTIPSGSTLAFRVAQLVIDSDLDVLLFPDKKQRTFQPPATGHKRSTSEGAWPQLPSGLSEDFQGLRAEVETISKELELLDRELCQLLLEGLEGVLRDQLALRALEEALEQGQSLGPVEPLDGPAGAVLECLVLSSGMLVPELAIPVVYLLGALTMLSETQHKLLAEALESQTLLGPLELVGSLLEQSAPWQERSTMSLPPGLLGNSWGEGAPAWVLLDECGLELGEDTPHVCWEPQAQGRMCALYASLALLSGLSQEPH
B1: binds.
